Numbering of substitutions follows the chain as printed.
T1: Human PTK7 Protein, His Tag, Acro Biosystems (human, UniProt Q13308 31-704)
T1 construct: Bought recombinant protein; also called CCK4; not shown: His tag
T1 sequence: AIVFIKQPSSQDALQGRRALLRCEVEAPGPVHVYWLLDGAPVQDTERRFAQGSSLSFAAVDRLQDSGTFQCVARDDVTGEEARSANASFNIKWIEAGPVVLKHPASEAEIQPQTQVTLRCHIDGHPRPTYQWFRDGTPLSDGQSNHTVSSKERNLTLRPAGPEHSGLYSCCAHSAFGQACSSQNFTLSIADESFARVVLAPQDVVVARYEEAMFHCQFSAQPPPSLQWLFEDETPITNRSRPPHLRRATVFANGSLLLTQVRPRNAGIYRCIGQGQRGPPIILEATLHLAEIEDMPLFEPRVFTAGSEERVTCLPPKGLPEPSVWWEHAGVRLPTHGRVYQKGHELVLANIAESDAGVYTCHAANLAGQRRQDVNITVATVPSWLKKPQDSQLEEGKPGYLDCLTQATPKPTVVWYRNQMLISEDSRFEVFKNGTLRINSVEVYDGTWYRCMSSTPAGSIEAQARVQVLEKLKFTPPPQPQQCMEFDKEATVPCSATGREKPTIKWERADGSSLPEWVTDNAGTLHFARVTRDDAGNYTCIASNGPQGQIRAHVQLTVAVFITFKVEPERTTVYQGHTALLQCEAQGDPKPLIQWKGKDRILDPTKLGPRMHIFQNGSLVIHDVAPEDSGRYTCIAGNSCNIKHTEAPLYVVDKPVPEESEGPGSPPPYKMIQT

T2: Human PTK7 Protein, His Tag (Acro Biosystems) (human, UniProt Q13308 31-704)
T2 construct: Bought His-tagged recombinant human PTK7; also called CCK4; Tyrosine-protein kinase-like 7
T2 sequence: T1 sequence

B1: MYT11117 (antibody, V domains shown)
VH: EVQLVESGGGLVQPGGSLRLSCTASGFSLSTYAMSWVRQAPGKGLEWVGMIYINHNTYYASWAKGRFTISRDTSKNTVYLQMNSLRAEDTAVYFCARDIGISYYIGVSLWGQGTLVTVSS
VL: EIVMTQSPSTLSASVGDRVIITCQASQSIGTRLSWYQQKPGKAPKLLIYGASKLATGVPSRFSGSGSGAEFTLTISSLQPDDFATYYCLGEYSYTTTDGIAFGQGTKLTVL
notes: MYT9412 HC variant
B2: MYT11115 (antibody, V domains shown)
VH: B1 VH with I53H, H55D
VL: B1 VL
notes: MYT9412 HC variant
B3: MYT11105 (antibody, V domains shown)
VH: B1 VH with L29H, H55D
VL: B1 VL
notes: MYT9412 HC variant
B4: MYT11103 (antibody, V domains shown)
VH: B1 VH with F27H, H55D
VL: B1 VL
notes: MYT9412 HC variant
B5: MYT11136 (antibody, V domains shown)
VH: B1 VH with H55D, Y104H
VL: B1 VL
notes: MYT9412 HC variant
B6: MYT11106 (antibody, V domains shown)
VH: B1 VH with S30H, H55D
VL: B1 VL
notes: MYT9412 HC variant
B7: MYT11120 (antibody, V domains shown)
VH: B1 VH with H55D, Y58H
VL: B1 VL
notes: MYT9412 HC variant
B8: MYT11134 (antibody, V domains shown)
VH: B1 VH with H55D, S102H
VL: B1 VL
notes: MYT9412 HC variant
B9: MYT11137 (antibody, V domains shown)
VH: B1 VH with H55D, I105H
VL: B1 VL
notes: MYT9412 HC variant
B10: MYT11107 (antibody, V domains shown)
VH: B1 VH with T31H, H55D
VL: B1 VL
notes: MYT9412 HC variant
B11: MYT11108 (antibody, V domains shown)
VH: B1 VH with Y32H, H55D
VL: B1 VL
notes: MYT9412 HC variant
B12: MYT10965 (antibody, V domains shown)
VH: EVQLVESGGGLVQPGGSLRLSCTASGFSLSSYAMGWVRQAPGKGLEWVGFINAHGNTYYANWAKGRFTISRDTSKNTVYLQMNSLRAEDTAVYFCARRYSRASGWYDLWGQGTLVTVSS
VL: EIVMTQSPSTLSASVGDRVIITCQASQSISSYLAWYQQKPGKAPKLLIYAASTLASGVPSRFSGSGSGAEFTLTISSLQPDDFATYYCQSYSYSSGIDYGDVFGQGTKLTVL
notes: MYT9359 HC variant; captured on anti-human Fc sensor
B13: MYT11019 (antibody, V domains shown)
VH: B12 VH with H54G
VL: B12 VL with D98H
notes: MYT9359 LC variant; captured on anti-human Fc sensor
B14: MYT10971 (antibody, V domains shown)
VH: B12 VH with H54G, A60H
VL: B12 VL
notes: as for B12
B15: MYT10994 (antibody, V domains shown)
VH: B12 VH with H54G
VL: B12 VL with S26H
notes: as for B13
B16: MYT11020 (antibody, V domains shown)
VH: B12 VH with H54G
VL: B12 VL with Y99H
notes: as for B13
B17: MYT10976 (antibody, V domains shown)
VH: B12 VH with H54G, G65H
VL: B12 VL
notes: as for B12
B18: MYT10977 (antibody, V domains shown)
VH: B12 VH with H54G, A96H
VL: B12 VL
notes: as for B12
B19: MYT10967 (antibody, V domains shown)
VH: B12 VH with H54G, N56H
VL: B12 VL
notes: as for B12
B20: MYT10975 (antibody, V domains shown)
VH: B12 VH with H54G, K64H
VL: B12 VL
notes: as for B12
B21: MYT10992 (antibody, V domains shown)
VH: B12 VH with H54G
VL: B12 VL with Q24H
notes: as for B13
B22: MYT10968 (antibody, V domains shown)
VH: B12 VH with H54G, T57H
VL: B12 VL
notes: as for B12
B23: MYT10996 (antibody, V domains shown)
VH: B12 VH with H54G
VL: B12 VL with S28H
notes: as for B13
B24: MYT11016 (antibody, V domains shown)
VH: B12 VH with H54G
VL: B12 VL with S95H
notes: as for B13
B25: MYT10987 (antibody, V domains shown)
VH: B12 VH with H54G, Y106H
VL: B12 VL
notes: as for B12
B26: MYT11008 (antibody, V domains shown)
VH: B12 VH with H54G
VL: B12 VL with A55H
notes: as for B13
B27: MYT11015 (antibody, V domains shown)
VH: B12 VH with H54G
VL: B12 VL with S94H
notes: as for B13
B28: MYT11009 (antibody, V domains shown)
VH: B12 VH with H54G
VL: B12 VL with S56H
notes: as for B13
B29: MYT10995 (antibody, V domains shown)
VH: B12 VH with H54G
VL: B12 VL with Q27H
notes: as for B13
B30: MYT11007 (antibody, V domains shown)
VH: B12 VH with H54G
VL: B12 VL with L54H
notes: as for B13
B31: MYT10972 (antibody, V domains shown)
VH: B12 VH with H54G, N61H
VL: B12 VL
notes: as for B12
B32: MYT10973 (antibody, V domains shown)
VH: B12 VH with H54G, W62H
VL: B12 VL
notes: as for B12

Legend:
[1] = biological target: T1, Human PTK7 Protein, His Tag, Acro …; test: BLI, anti-human Fc capture, 50 nM PTK7; 1 = pH dependent binding relative to parent
[2] = biological target: T2, Human PTK7 Protein, His Tag (Acro …); test: BLI (Octet), antibody on anti-human Fc sensor, 50 nM PTK7; 2 = substantially similar binding

Row | binding result [1] | binding result [2] | Binder
1 | binds | – | B1
2 | binds | – | B2
3 | binds | – | B3
4 | binds | – | B4
5 | binds | – | B5
6 | binds | – | B6
7 | binds | – | B7
8 | binds | – | B8
9 | binds | – | B9
10 | binds | – | B10
11 | binds | – | B11
12 | – | binds | B12
13 | – | binds | B13
14 | – | binds | B14
15 | – | binds | B15
16 | – | binds | B16

Row | binding result [1] | binding result [2] | Binder
17 | – | binds | B17
18 | – | binds | B18
19 | – | binds | B19
20 | – | binds | B20
21 | – | binds | B21
22 | – | binds | B22
23 | – | binds | B23
24 | – | binds | B24
25 | – | binds | B25
26 | – | binds | B26
27 | – | binds | B27
28 | – | binds | B28
29 | – | binds | B29
30 | – | binds | B30
31 | – | binds | B31
32 | – | binds | B32
